In this test the target is MHC class I (human). The experiment in a line: cell-based or functional assay.

“monoclonal antibody to MHC class I (w6/32 without sodium azide, Cat. No. 16-9983, e-Bioscience, Inc.)”: the IFN-γ production (ELISPOT, PBMC stimulated with CMV pp65 peptide …), percent inhibited, 2 µl W6/32 was 27 to 42% and the IFN-γ production (ELISPOT, PBMC stimulated with CMV pp65 peptide …), percent inhibited, 10 µl W6/32 is 58 to 71%.

The record behind these values is patent US20050074822A1.
